From US20240270821A1, “GIP/GLP1/GCG TRI-RECEPTOR AGONISTS AND USES THEREOF” (priority 2023, published 2024)
Residue numbers refer to the chain shown, from its start.

T1: human GIP receptor (human) (UniProt P48546)
T1 sequence (looked up): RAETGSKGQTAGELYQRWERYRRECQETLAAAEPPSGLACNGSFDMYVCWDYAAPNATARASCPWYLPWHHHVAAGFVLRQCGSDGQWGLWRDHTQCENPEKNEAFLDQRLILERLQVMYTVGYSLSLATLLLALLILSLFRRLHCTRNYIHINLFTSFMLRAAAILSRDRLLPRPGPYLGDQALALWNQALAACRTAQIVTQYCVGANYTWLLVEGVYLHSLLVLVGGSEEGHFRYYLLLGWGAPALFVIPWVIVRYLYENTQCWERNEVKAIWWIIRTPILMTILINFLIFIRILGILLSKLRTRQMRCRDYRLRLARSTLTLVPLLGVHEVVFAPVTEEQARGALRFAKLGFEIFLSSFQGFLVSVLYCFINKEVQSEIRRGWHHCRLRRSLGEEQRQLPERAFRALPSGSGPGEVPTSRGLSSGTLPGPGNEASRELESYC

B1: Example 1146 (peptide)
chain: YXQGTXTSDXXIXLDXKAQXEFIEXLIEGGPSSGAPPPESE
modifications: non-natural residues, acylated Lys, C-terminal amide; synthetic construct; SITE 2: note = 2-Aminoisobutyric Acid; SITE 6: note = alpha-methyl-2-fluoro-L-phenylalanine; SITE 10: note = 3-(4-Pyridyl)-L-alanine; SITE 11: note = alpha-methyl-L-serine; SITE 13: note = alpha-methyl-leucine; SITE 16: note = L-ornithine; SITE 17: note = Lysine is chemically mo
B2: Example 1148 (peptide)
chain: B1 chain with S40G
modifications: non-natural residues, AEEA-γGlu-diacid acylated Lys, C-terminal amide; synthetic construct; SITE 2: note = 2-Aminoisobutyric Acid; SITE 6: note = alpha-methyl-2-fluoro-L-phenylalanine; SITE 10: note = 3-(4-Pyridyl)-L-alanine; SITE 11: note = alpha-methyl-L-serine; SITE 13: note = alpha-methyl-leucine; SITE 16: note = L-ornithine; SITE 17: note = Lysine is chemically mo
B3: Example 1144 (peptide)
chain: B1 chain with E39G, S40G
modifications: non-natural residues; K acylated AEEA-γGlu-C18 diacid; C-amide; synthetic construct; SITE 2: note = 2-Aminoisobutyric Acid; SITE 6: note = alpha-methyl-2-fluoro-L-phenylalanine; SITE 10: note = 3-(4-Pyridyl)-L-alanine; SITE 11: note = alpha-methyl-L-serine; SITE 13: note = alpha-methyl-leucine; SITE 16: note = L-ornithine; SITE 17: note = Lysine is chemically mo
B4: Example 1120 (peptide)
chain: YXQGTFTSDXSQXLDKKAQXAFIEXLIEXGPSSGAPPPSGE
modifications: Aib, 4Pal, αMeL, Me4Pal; acylated K; C-terminal amide; synthetic construct; SITE 2: note = 2-Aminoisobutyric Acid; SITE 10: note = 3-(4-Pyridyl)-L-alanine; SITE 13: note = alpha-methyl-leucine; SITE 17: note = Lysine is chemically modified through conjugation of the epsilon-amino group of the Lysine side chain with (gamma-Glu)2-CO-(CH2)16-CO2H; SITE 20:
B5: Example 247 (peptide)
chain: B4 chain with X10F, Q12X, X25Y, I27L, P31H
modifications: non-natural residues; lipidated Lys AEEA-γGlu-C18 diacid; C-term amide; synthetic construct; SITE 2: note = 2-Aminoisobutyric Acid; SITE 12: note = L-ornithine; SITE 13: note = alpha-methyl-leucine; SITE 17: note = Lysine is chemically modified through conjugation of the epsilon-amino group of the Lysine side chain with (2-[2-(2-Amino-ethoxy)-ethoxy]-acetyl)-(gamma-Glu)
B6: Example 266 (peptide)
chain: B4 chain with X10F, Q12X, X25W, I27L, P31H
modifications: Aib, Orn, αMeL; K acylated with (AEEA)2-γGlu-C18 diacid; C-amide; synthetic construct; SITE 2: note = 2-Aminoisobutyric Acid; SITE 12: note = L-ornithine; SITE 13: note = alpha-methyl-leucine; SITE 17: note = Lysine is chemically modified through conjugation of the epsilon-amino group of the Lysine side chain with (2-[2-(2-Amino-ethoxy)-ethoxy]-acetyl)2-(gamma-Glu)
B7: Example 1132 (peptide)
chain: YXQGTFTSDXXQXLDXKAQXQFIQXLIAXGPSSGAPPPSGGGE
modifications: not fully specified; Lys acylated γGlu-C18 diacid; non-natural residues; C-amide; synthetic construct; SITE 2: note = 2-Aminoisobutyric Acid; SITE 10: note = 3-(4-Pyridyl)-L-alanine; SITE 11: note = alpha-methyl-L-serine; SITE 13: note = alpha-methyl-leucine; SITE 16: note = L-ornithine; SITE 17: note = Lysine is chemically modified through conjugation of the epsilon-amino group
B8: Example 1136 (peptide)
chain: B7 chain with Q12I, A28E
modifications: not fully specified; non-natural residues (Aib, 4Pal, αMeS, Orn, Me4Pal); lipidated Lys; C-amide; synthetic construct; SITE 2: note = 2-Aminoisobutyric Acid; SITE 10: note = 3-(4-Pyridyl)-L-alanine; SITE 11: note = alpha-methyl-L-serine; SITE 13: note = alpha-methyl-leucine; SITE 16: note = L-ornithine; SITE 17: note = Lysine is chemically modified through conjugation of the epsilon-amino group
B9: Example 1134 (peptide)
chain: B7 chain with A28E
modifications: not fully specified; N-methyl-Tyr, non-natural residues, acylated Lys (γGlu-C18 diacid), C-terminal amide; synthetic construct; SITE 1: note = N-methyl-tyrosine; SITE 2: note = 2-Aminoisobutyric Acid; SITE 10: note = 3-(4-Pyridyl)-L-alanine; SITE 11: note = alpha-methyl-L-serine; SITE 13: note = alpha-methyl-leucine; SITE 16: note = L-ornithine; SITE 17: note = Lysine is chemically modified …
B10: Example 1135 (peptide)
chain: B7 chain with Q12I, A28E
modifications: not fully specified; N-methyl Tyr, non-natural residues, acylation, C-terminal amide; synthetic construct; SITE 1: note = N-methyl-tyrosine; SITE 2: note = 2-Aminoisobutyric Acid; SITE 10: note = 3-(4-Pyridyl)-L-alanine; SITE 11: note = alpha-methyl-L-serine; SITE 13: note = alpha-methyl-leucine; SITE 16: note = L-ornithine; SITE 17: note = Lysine is chemically modified through conju
B11: Example 1139 (peptide)
chain: B7 chain with I27L, A28E
modifications: not fully specified; non-natural residues (Aib, 4Pal, αMeS, Iva, αMeY); lipidated K; amide; synthetic construct; SITE 2: note = 2-Aminoisobutyric Acid; SITE 10: note = 3-(4-Pyridyl)-L-alanine; SITE 11: note = alpha-methyl-L-serine; SITE 13: note = alpha-methyl-leucine; SITE 16: note = L-ornithine; SITE 17: note = Lysine is chemically modified through conjugation of the epsilon-amino group
B12: Example 1138 (peptide)
chain: B7 chain with I27L, A28E
modifications: not fully specified; non-natural residues, acylated Lys, C-terminal amide; synthetic construct; SITE 2: note = 2-Aminoisobutyric Acid; SITE 10: note = 3-(4-Pyridyl)-L-alanine; SITE 11: note = alpha-methyl-L-serine; SITE 13: note = alpha-methyl-leucine; SITE 16: note = L-ornithine; SITE 17: note = Lysine is chemically modified through conjugation of the epsilon-amino group
B13: Example 1122 (peptide)
chain: YXQGTFTSDXSQXLDKKAQXAFIEXLIEXGPSSGAPPPSGSEE
modifications: Aib, 4Pal, αMeL, Me4Pal; K (γGlu)2-C18 diacid; amide; synthetic construct; SITE 2: note = 2-Aminoisobutyric Acid; SITE 10: note = 3-(4-Pyridyl)-L-alanine; SITE 13: note = alpha-methyl-leucine; SITE 17: note = Lysine is chemically modified through conjugation of the epsilon-amino group of the Lysine side chain with (gamma-Glu)2-CO-(CH2)16-CO2H; SITE 20:
B14: Example 1127 (peptide)
chain: B13 chain with X25Y, S41T, E42G
modifications: Aib, 4Pal, Me4Pal, alpha-methyl-Leu, lipidated Lys, C-terminal amide; synthetic construct; SITE 2: note = 2-Aminoisobutyric Acid; SITE 10: note = 3-(4-Pyridyl)-L-alanine; SITE 13: note = alpha-methyl-leucine; SITE 17: note = Lysine is chemically modified through conjugation of the epsilon-amino group of the Lysine side chain with (gamma-Glu)2-CO-(CH2)16-CO2H; SITE 20:

What was measured:
Test in all cases: cell-based or functional assay
[1] = target: T1, human GIP receptor (human)
hGLP-1R = hGLP-1R (Homo sapiens, UniProt P43220)
hGLP-1R, sequence (P43220 24-463): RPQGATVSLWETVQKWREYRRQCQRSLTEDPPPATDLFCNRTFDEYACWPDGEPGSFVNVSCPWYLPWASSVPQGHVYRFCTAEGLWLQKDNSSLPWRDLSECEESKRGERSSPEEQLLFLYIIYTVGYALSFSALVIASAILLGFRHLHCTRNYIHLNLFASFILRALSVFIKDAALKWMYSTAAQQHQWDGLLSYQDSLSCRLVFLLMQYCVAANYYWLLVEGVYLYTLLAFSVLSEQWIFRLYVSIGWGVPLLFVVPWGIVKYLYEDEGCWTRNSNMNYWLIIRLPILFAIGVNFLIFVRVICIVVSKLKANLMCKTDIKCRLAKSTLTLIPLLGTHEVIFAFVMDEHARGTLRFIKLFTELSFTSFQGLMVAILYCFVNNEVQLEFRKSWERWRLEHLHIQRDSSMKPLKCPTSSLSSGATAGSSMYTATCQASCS

[2] = target: human glucagon receptor (human) (UniProt P47871)
human glucagon receptor (human), sequence (P47871 26-477): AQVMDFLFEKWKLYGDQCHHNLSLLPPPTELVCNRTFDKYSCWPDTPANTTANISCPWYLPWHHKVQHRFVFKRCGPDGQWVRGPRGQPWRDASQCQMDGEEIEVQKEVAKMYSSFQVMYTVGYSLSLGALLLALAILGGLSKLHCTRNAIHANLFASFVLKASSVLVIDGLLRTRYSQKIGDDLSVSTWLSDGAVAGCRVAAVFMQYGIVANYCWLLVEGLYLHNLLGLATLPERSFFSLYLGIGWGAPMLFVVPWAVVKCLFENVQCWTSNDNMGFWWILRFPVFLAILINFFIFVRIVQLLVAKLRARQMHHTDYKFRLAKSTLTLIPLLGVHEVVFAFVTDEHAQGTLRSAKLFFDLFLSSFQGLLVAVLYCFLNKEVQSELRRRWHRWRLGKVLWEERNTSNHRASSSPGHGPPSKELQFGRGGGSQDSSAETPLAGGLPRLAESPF

Binder	Relative cAMP EC50 [1] [nM]	Relative cAMP EC50 (hGLP-1R) [nM]	Relative cAMP EC50 [2] [nM]	cAMP Rel EC50 (in the presence of 1% HSA) [1] [nM]	cAMP Rel EC50 (in the presence of 1% HSA) (hGLP-1R) [nM]	cAMP Rel EC50 (in the presence of 1% HSA) [2] [nM]
B1	0.00628	0.281	1.22			
B2	0.00801	0.299	1.6			
B3	0.00649	0.282	1.32			
B4	0.096	4.5	5.17			
B5				12.9	291	443
B6				17.3	583	923
B7	0.0335	0.681	2.11			
B8	0.0131	0.453	1.26			
B9	0.0391	0.957	2.57			
B10	0.0126	0.746	1.76			
B11	0.0431	1.85	5.29			
B12	0.0491	1.93	1.01			
B13	0.109	5.66	10.3			
B14	0.167	6.16	5.95			
